Patent US6867008 (NEW ENGLAND MEDICAL CENTER HOSPITALS, dated 2005)

T1: [35S]hERα (in vitro translated human estrogen receptor alpha) (human, UniProt P03372 1-595, [35S]methionine labelled)
T1 construct: also called [^35S] labeled hERα; ER alpha
T1 sequence (looked up): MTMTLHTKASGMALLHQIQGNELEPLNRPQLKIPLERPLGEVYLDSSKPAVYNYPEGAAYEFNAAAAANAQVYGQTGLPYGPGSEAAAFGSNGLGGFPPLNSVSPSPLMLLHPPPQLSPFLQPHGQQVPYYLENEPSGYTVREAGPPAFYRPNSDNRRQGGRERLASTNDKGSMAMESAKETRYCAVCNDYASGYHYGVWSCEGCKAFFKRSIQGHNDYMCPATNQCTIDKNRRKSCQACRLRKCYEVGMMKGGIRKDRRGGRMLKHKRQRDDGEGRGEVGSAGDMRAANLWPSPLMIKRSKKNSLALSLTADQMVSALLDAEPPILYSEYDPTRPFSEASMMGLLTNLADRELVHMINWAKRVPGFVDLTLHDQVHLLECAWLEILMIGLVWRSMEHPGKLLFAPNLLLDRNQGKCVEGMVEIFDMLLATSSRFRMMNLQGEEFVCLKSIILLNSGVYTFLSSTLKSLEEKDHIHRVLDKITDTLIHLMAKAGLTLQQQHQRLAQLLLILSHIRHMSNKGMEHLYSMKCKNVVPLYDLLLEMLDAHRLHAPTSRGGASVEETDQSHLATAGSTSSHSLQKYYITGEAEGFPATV


Tests used:
[1] = biological target: T2, hERα/BD (human estrogen receptor alpha fused to the Gal4 DNA binding domain) (human, UniProt P04386 1-147; P03372 1-595); experiment: yeast two-hybrid
T2 construct: also called ERα/GalBD; hERα/GalBD
Text: Screening of the ovine library yielded clone EC1. […] Yeast strain Y190 was transformed with mERβ/BD in combination with EC1/AD and GalAD respectively and plated on Sc-His (synthetic complete medium, minus histidine) and YPD (yeast extract, peptone, dextrose) plates (FIG. 1A). […] Yeast strain Y190 was also transformed with human ER alpha (hERα)/BD in combination with EC1/AD, hERα/BD and Trip 1/AD and plated on Sc-His and YPD plates. Positive interaction of hERα/BD with […] and Trip 1/GalAD was seen only in the presence of estrogen. Colony lift β-Galactosidase assays were also performed with yeasts from the YPD plate in both FIG. 1A and 1B. TIF2 and TRIP1 homologs were found previously by screening a human heart library with mERβ as bait. […] This implies a new function for ER beta that may be separated from its estrogen binding function.

mERβ1-622/GalBD = biological target: T3, mERβ1-622/GalBD (mouse, UniProt P04386 1-147; O08537 46-252); experiment: yeast two-hybrid, HIS and β-galactosidase reporters
T3 construct: about the first 207 codons of the short variant ORF (my reading)

mERβ1-516/GalBD = biological target: T4, mERβ1-516/GalBD (mouse, UniProt P04386 1-147; O08537 46-217); experiment: as above
T4 construct: Expression in Y190 confirmed by Western blot

[2] = biological target: T1, [35S]hERα (in vitro translated human …); experiment: GST pull-down, SDS-PAGE and autoradiography
Protocol: Recombinant proteins were incubated at 4° in suspension buffer (20 mM Tris pH7.4, 137 mM NaCl, 2 mM EDTA pH7.4, 1% TritonX-100, 10% Glycerol, 25 mM β-glycerolphosphate, 1 mM Na vanadate, […], 1 mM PMSF) with either one of the GST fusion proteins immobilized on glutathione-Sepharose beads for 1 hour. Beads were then washed three times in suspension buffer, boiled 5 minutes in SDS sample buffer, and associated proteins resolved by SDS-PAGE. Labeled protein bands in gels were then visualized by autoradiography.
[^35S] labeled mERβ was incubated with GST-beads (Lane 2) and GST-EC1 beads (Lane 3) followed by SDS-PAGE and autoradiography. […] In the complementary experiment (FIG. 4B), [^35S]-labeled hsMAD2 was incubated with GST beads (Lane 2) and GST-mERP beads (Lane 3) followed by SDS-PAGE and autoradiography. […] MAD2 input (FIG. 4B). GST-fusion protein interaction studies were also done with hERα. [^35S] labeled hERα was incubated with GST-mERβ (Lane 2, positive control), GST-beads (Lane 3) and GST-EC1 beads followed by SDS-PAGE and autoradiography.

binding result [1]	binding result (mERβ1-622/GalBD)	binding result (mERβ1-516/GalBD)	binding result [2]	Binder
no binding	binds	no binding	–	EC1/AD (ovine clone EC1, MAD2 homolog, fused to the Gal4 activating domain, vector pGAD10) (other, not shown: large carriers, Library clone from ovine pulmonary artery endothelial cells; also called EC1/GalAD) REQGITLRGSAEIVAEFFSFGINSILYQRGIYPSETFTRVQKYGLTLLVTTDPELIKYLNNVVDQLKEWLYKCSVQKLVVVISNIESGEVLERWQFDIECDKTAKDDSAPREKSQKAIQDEIRSVIRQITATVTFLPLLEVSCSFDLLIYTDKDLVVPEKWEESGPQFITNSEEVRLRSFTTTIHKVNSMVAYKIPVHD
–	–	–	no binding	GST-EC1 (other, Immobilised on glutathione-Sepharose beads; also called GST-MAD2 clone; GST MAD2; not shown: glutathione S-transferase of vector pGEX-4T-1) REQGITLRGSAEIVAEFFSFGINSILYQRGIYPSETFTRVQKYGLTLLVTTDPELIKYLNNVVDQLKEWLYKCSVQKLVVVISNIESGEVLERWQFDIECDKTAKDDSAPREKSQKAIQDEIRSVIRQITATVTFLPLLEVSCSFDLLIYTDKDLVVPEKWEESGPQFITNSEEVRLRSFTTTIHKVNSMVAYKIPVHD
